Data from patent US20190365920A1 (INSERM INSTITUT NATIONAL DE LA SANT ET DE LA RECHERCHE …, published 2019).

Molecular target: T1, SLITRK6 (SLIT and NTRK-like family, member 6) (human, UniProt Q9H5Y7 27-841)
T1 construct: whole, on cells; Endogenous SLITRK6 at the membrane of A375 BRAF-mutant melanoma cells after treatment with PLX4032, alone or with AZD6244; also called DFNMYP
T1 sequence (looked up): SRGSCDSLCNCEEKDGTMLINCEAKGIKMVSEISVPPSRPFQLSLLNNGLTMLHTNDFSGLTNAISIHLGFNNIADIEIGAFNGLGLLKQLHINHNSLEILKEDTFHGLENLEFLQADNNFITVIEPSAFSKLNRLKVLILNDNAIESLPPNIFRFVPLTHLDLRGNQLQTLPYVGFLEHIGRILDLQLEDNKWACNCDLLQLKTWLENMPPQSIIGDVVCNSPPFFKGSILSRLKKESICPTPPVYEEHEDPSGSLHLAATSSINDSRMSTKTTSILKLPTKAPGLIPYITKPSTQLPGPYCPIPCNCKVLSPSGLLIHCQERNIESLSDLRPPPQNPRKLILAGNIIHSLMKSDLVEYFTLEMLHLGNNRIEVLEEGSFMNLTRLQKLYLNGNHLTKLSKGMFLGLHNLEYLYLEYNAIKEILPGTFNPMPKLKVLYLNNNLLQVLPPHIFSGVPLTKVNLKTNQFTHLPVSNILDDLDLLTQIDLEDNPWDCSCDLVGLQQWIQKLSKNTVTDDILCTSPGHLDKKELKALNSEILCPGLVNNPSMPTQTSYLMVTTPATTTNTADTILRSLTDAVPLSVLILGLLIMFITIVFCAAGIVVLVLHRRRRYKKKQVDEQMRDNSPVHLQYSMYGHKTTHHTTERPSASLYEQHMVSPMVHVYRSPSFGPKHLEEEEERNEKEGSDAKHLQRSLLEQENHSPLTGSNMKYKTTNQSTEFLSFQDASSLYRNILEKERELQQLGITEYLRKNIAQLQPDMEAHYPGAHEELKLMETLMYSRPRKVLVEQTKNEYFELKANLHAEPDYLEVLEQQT
Experiment: immunofluorescence staining of A375 cells (si-Ctl or si-SLITRK6) treated with PLX4032 alone or with AZD6244

B1: Hal5-10acl2 antibody directed against SLITRK6 (antibody, V domains shown)
VH: QVQLVESGGGVVQPGRSLRLSCAASGFTFSSYGMHWVRQAPGKGLEWVAVIWYDGSNQYYADSVKGRFTISRDNSKNTLFLQMHSLRAEDTAVYYCARGLTSGRYGMDVWGQGTTVTVSS
VL: DIVMTQSPLSLPVTPGEPASISCRSSQSLLLSHGFNYLDWYLQKPGQSPQLLIYLGSSRASGVPDRFSGSGSGTDFTLKISRVEAEDVGLYYCMQPLQIPWTFGQGTKVEIKR
notes: It is produced by a CHO cell deposited as ATCC PTA-13102; also called HA15-10acl2; the antibody against SLITRK6
- binding result: binds
